Test results from doi:10.1101/2021.12.03.471045 (bioRxiv, 2021).

Target: early pandemic (Wuhan) SARS-CoV-2 RBD (SARS-CoV-2, UniProt P0DTC2)
Test: SPR
Settings: both partners purified

B1: EY6A mAb (IgG) (antibody, V domains shown)
VH: EVQLVESGGGVVQPGRSLRLSCAASAFTFSSYDMHWVRQAPGKGLEWVAVISYDGSNKYYADSVKGRFTISRDNSKNTLYLQMNSLRAEDTAVYYCAKDGGKLWVYYFDYWGQGTLVTVSS
VL: not shown
- Kd: 7.8 nM
